Numbered stars: 1 amine (or outer) side, 2 acyl side, 3 side chain; on linkers, the order of the positions; unused ones are H or OH. Bridge positions count the residues as written; N and C are the ends. Side chains are listed from the residue outwards. Ends that are not written are not given here. * marks the point of attachment. C20 diacid = O=C(O)CCCCCCCCCCCCCCCCCCC(=O)*; γGlu = O=C(O)[C@H](CCC(=O)[*:2])N[*:1]
T1: human calcitonin receptor (human, UniProt P30988 25-474)
T1 sequence (looked up): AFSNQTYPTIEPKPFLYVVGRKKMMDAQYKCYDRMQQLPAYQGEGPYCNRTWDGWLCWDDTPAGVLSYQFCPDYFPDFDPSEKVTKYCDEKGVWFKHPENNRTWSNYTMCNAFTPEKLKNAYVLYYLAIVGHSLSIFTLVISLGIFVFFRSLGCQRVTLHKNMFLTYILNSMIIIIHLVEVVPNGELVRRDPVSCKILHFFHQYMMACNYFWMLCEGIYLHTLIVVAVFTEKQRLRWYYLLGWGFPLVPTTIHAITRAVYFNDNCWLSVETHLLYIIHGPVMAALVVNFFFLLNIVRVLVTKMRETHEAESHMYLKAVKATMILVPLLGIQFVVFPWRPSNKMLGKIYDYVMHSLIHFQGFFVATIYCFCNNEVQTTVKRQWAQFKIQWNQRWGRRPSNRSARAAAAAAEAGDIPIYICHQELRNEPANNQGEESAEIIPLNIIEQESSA


Target: T1, human calcitonin receptor
Test: cell-based or functional assay

| hCTR funct. EC50 (pM) | Binder |
| --- | --- |
| 2830 | K([γGlu-γGlu-C20 diacid])CNTATCATQRLAEFLRHSSPNFGAIPSSTNVGPHTY-NH2 (disulfide 2-7 (inferred), synthetic peptide amide) |
| 2140 | K([γGlu-γGlu-C20 diacid])CNTATCATQRLAEFLRHSSPNFGAIPSSTNVGPNTF-NH2 (disulfide 2-7; N-terminus assumed; SMILES CC[C@H](C)[C@H](NC(=O)[C@H](C)NC(=O)CNC(=O)[C@H](Cc1ccccc1)NC(=O)[C@H](CC(N)=O)NC(=O)[C@@H]1CCCN1C(=O)[C@H](CO)NC(=O)[C@H](CO)NC(=O)[C@H](Cc1c[nH]cn1)NC(=O)[C@H](CCCNC(=N)N)NC(=O)[C@H](CC(C)C)NC(=O)[C@H](Cc1ccccc1)NC(=O)[C@H](CCC(=O)O)NC(=O)[C@H](C)NC(=O)[C@H](CC(C)C)NC(=O)[C@H](CCCNC(=N)N)NC(=O)[C@H](CCC(N)=O)NC(=O)[C@@H](NC(=O)[C@H](C)NC(=O)[C@@H]1CSSC[C@H](NC(=O)[C@@H](N)CCCCNC(=O)CC[C@H](NC(=O)CC[C@H](NC(=O)CCCCCCCCCCCCCCCCCCC(=O)O)C(=O)O)C(=O)O)C(=O)N[C@@H](CC(N)=O)C(=O)N[C@@H]([C@@H](C)O)C(=O)N[C@@H](C)C(=O)N[C@@H]([C@@H](C)O)C(=O)N1)[C@@H](C)O)C(=O)N1CCC[C@H]1C(=O)N[C@@H](CO)C(=O)N[C@@H](CO)C(=O)N[C@H](C(=O)N[C@@H](CC(N)=O)C(=O)N[C@H](C(=O)NCC(=O)N1CCC[C@H]1C(=O)N[C@@H](CC(N)=O)C(=O)N[C@H](C(=O)N[C@@H](Cc1ccccc1)C(N)=O)[C@@H](C)O)C(C)C)[C@@H](C)O, synthetic peptide amide) |
| 89600 | K([γGlu-γGlu-C20 diacid])CNTATCATQRLAEFLRHSSNNPGAILSSTNVGPETY-NH2 (disulfide 2-7; N-terminus assumed; SMILES CC[C@H](C)[C@H](NC(=O)[C@H](C)NC(=O)CNC(=O)[C@@H]1CCCN1C(=O)[C@H](CC(N)=O)NC(=O)[C@H](CC(N)=O)NC(=O)[C@H](CO)NC(=O)[C@H](CO)NC(=O)[C@H](Cc1c[nH]cn1)NC(=O)[C@H](CCCNC(=N)N)NC(=O)[C@H](CC(C)C)NC(=O)[C@H](Cc1ccccc1)NC(=O)[C@H](CCC(=O)O)NC(=O)[C@H](C)NC(=O)[C@H](CC(C)C)NC(=O)[C@H](CCCNC(=N)N)NC(=O)[C@H](CCC(N)=O)NC(=O)[C@@H](NC(=O)[C@H](C)NC(=O)[C@@H]1CSSC[C@H](NC(=O)[C@@H](N)CCCCNC(=O)CC[C@H](NC(=O)CC[C@H](NC(=O)CCCCCCCCCCCCCCCCCCC(=O)O)C(=O)O)C(=O)O)C(=O)N[C@@H](CC(N)=O)C(=O)N[C@@H]([C@@H](C)O)C(=O)N[C@@H](C)C(=O)N[C@@H]([C@@H](C)O)C(=O)N1)[C@@H](C)O)C(=O)N[C@@H](CC(C)C)C(=O)N[C@@H](CO)C(=O)N[C@@H](CO)C(=O)N[C@H](C(=O)N[C@@H](CC(N)=O)C(=O)N[C@H](C(=O)NCC(=O)N1CCC[C@H]1C(=O)N[C@@H](CCC(=O)O)C(=O)N[C@H](C(=O)N[C@@H](Cc1ccc(O)cc1)C(N)=O)[C@@H](C)O)C(C)C)[C@@H](C)O, synthetic peptide amide) |
| 1280 | K([γGlu-γGlu-C20 diacid])CNTATCATQRLAEFLRHSSPNFGAILSSTPVGPETY-NH2 (disulfide 2-7, synthetic peptide amide) |

Source: patent US20140087995A1 (published 2014)
